# Test results from the nanobody polyreactivity screen of Harvey et al. (2022).
# Test: yeast display, Sf9 membrane polyspecificity reagent, FACS + sequencing; frameworks hold sequencing errors
# Procedure, shortened: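 A synthetic nanobody library was expressed on Saccharomyces cerevisiae BJ5465 by galactose induction for 36–48 hours. The library was stained for 1 hour at 4 °C with 10% biotinylated, detergent-solubilized Sf9 membrane reagent and enriched with streptavidin microbeads before FACS. Low and high (top ~1%) gates were set on anti-HA fluorescence for expression and streptavidin fluorescence for reagent binding, and each polyreactivity label reflects the gate of origin.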
row,Sequence,polyreactivity (PSR sort gate)
1,QVQLVESGGGLVQAGGSLRLSCAASGRIWVYYTMGWYRQAPGKERELVAAITGSGGSTYYADSVTGRFTISRDNATNTVYLQMNSLKPEDTAVYYCAVYDSYRKFKYWGQGTQVTVSS,high polyreactivity
2,QVQLVESGGGLVQAGGSLRLSCAASGRIWYYAMGWYRQAPGKERELVAAISFSGGTTYYADSVKGRFTISRDNAKNTVYFPMNSLKPEDTGVYYCNKVSVGRYKRDYWGQGTQVTVSS,high polyreactivity
3,QVQLVESGGGLVQAGGSLRLSCAASGRIYASYVMGWYRQAPGKERELVAAISYGGSRTYYADSVKGRFTISRDNAKNTVYLQMNSLKPEDTAVYYCAAKKYTNRGYYYWGQGTQVTVSS,high polyreactivity
4,QVQLVESGGGLVQAGGSLRLSCAASGRIYAVNAMRWYRQAPGKERELVARIRRIGGSTYYADSVKGRFTISRDNAKNTVYLQMNSMKPEDTAVYYCAKTLGRRHPGYDYWGQGTQVTVSS,high polyreactivity
5,QVQLVESGGGLVQAGGSLRLSCAASGRIYDDYAMGWYRQAPGKERELVAAISSSGGSTYYADSVKGRFTISRDNAKNTVYLQMNSLKPEDTAVYYCARYPPGRRRYEYWGQGTQVTVSS,high polyreactivity
6,QVQLVESGGGLVQAGGSLRLSCAASGRIYGDNTMGWYRQAPGKEREFVAAISFIGGSTYYADSVKGRFTISRDNAKNTVYLQMNSLKPEDTAVYYCATVERWTYWFVGYDYWGQGTQVTGSS,high polyreactivity
7,QVQLVESGGGLVQAGGSLRLSCAASGRIYGYAMGWYRQAPGKESELVAVITTSGGRTYYADSVKGRFTISRDNAKNTVYLQMNSLKPEDNAVYYCNVGKPSRRSYGTLIPAALYDSWGQGTQVTVSS,high polyreactivity
8,QVQLVESGGGLVQAGGSLRLSCAASGRIYLNAMGWYRQAPGKERELVAAISSRGASTYYADSVKGRFTISRDNAKNTVYLQMKSLKPEDTAVFYCAARLRNIYYFRMGYWGQGTQVTVSS,high polyreactivity
9,QVQLVESGGGLVQAGGSLRLSCAASGRIYPGYTMGWYRQAPGKERELVAGISRSGGRTYYADSVKGRFTISRDNAKNTVYLQMNSLKPEDTAVYYCAADGYPGRRYTGMDYWGQGTQVTVSS,high polyreactivity
10,QVQLVESGGGLVQAGGSLRLSCAASGRIYPVYAMGWYRPAPGKERELVAAITSGVSTNYADSVKGRFTISRDNAKNTVYLQMNSLKPEDTAVYYCNKDYTTYPYYEDGYWGLGTQVTVSS,low polyreactivity
11,QVQLVESGGGLVQAGGSLRLSCAASGRIYRGNTKGWYRQAPGKERELVAAITRGGSTSYADSVKGRFTISRDNAKNTVYLQMMSLKPEDTAVYYCATRTHGEGTRRDSWGQGTQVTVSS,low polyreactivity
12,QVQLVESGGGLVQAGGSLRLSCAASGRIYRSYAMGWYRQAPGKERDLVAAITKSGGGTYYADTVKGRYTISRVNAKNTVYLQMNSLNPEDTAVYYCGARGHGGYYYWGQGTQVTVSS,high polyreactivity
13,QVQLVESGGGLVQAGGSLRLSCAASGRIYRYYAMGWYRQAPGKERELVAAITRSGGTTYYADSVKGRFTISRDNAKYTVYLQMNSLKPEDTAVYYCNAGVGQKYDYWGQVTQVTVSS,high polyreactivity
14,QVQLVESGGGLVQAGGSLRLSCAASGRIYSTNAMRWYRQAPGKEREFVAAIYWIGGSTYYADSVKGRFTISRDNAKNTVYLQMNSLKPEDTAVYYCAAGVYDDYPWSYDIFNLYDYWGQGTQVTVSS,low polyreactivity
15,QVQLVESGGGLVQAGGSLRLSCAASGRIYTYYTMGWYRQAPGKERELVAAITVRGGRTYYADSVKGRFTISRDNAKNTVYLQMNSLKPEDTAVYYCAARGLVRSYDYWGQVTQVTVSS,high polyreactivity
16,QVQLVESGGGLVQAGGSLRLSCAASGRIYVYAMGWYRQAPGKEREMVAAITASDGSTYYADSVKGRFTISRDNAKNTVYLQMNSLKPEDTAVYYCAADIYEHNYYGYYYWGQGTKVTVSS,high polyreactivity
17,QVQLVESGGGLVQAGGSLRLSCAASGRIYWNTKGWYRQAPGKERELVASISTGGGRTYYADSVKGRFTISRDNAKNTVYLQMNSLKPEDTAVYYCAARRGAGYSRFNYWGQGTQVTVSS,high polyreactivity
18,QVQLVESGGGLVQAGGSLRLSCAASGRIYYSNVMGWYRQAPGTERELVAAISGRTGGTYYADSVKGRFTISRDNAKNTVYLQMNSLKPEDTAVYYCAARVIYYYGYCTYDYWGQGTQVTVSS,low polyreactivity
19,QVQLVESGGGLVQAGGSLRLSCAASGRIYYTYAMGWYRQAPGKERELVAAIRRGGSTNYADSVKGRFTISRDNAKNTVYLQMNSLKPEDTAVYYCAADVYRASFWYGYWGQGTQVTVSS,low polyreactivity
20,QVQLVESGGGLVQAGGSLRLSCAASGRLFSYNAMGWYSQAPGKERELVAGITYGSTYYADSVKGRFRISRDNAKNTVYLQMNSLKPEDTAVYYSAADQSYTSVHGYRSDTLMDYWGQGTQGTVSS,low polyreactivity
21,QVQLVESGGGLVQAGGSLRLSCAASGRLFTIYAMGGYTQAPGKERELVATISRRGGSTYYADSVKGRFTISRDNAKNTVYLQMNSLKPEDTAVYYCAKRQRSKAAVAGYVDATGEMDYWGQGTQVTVSS,high polyreactivity

row,Sequence,polyreactivity (PSR sort gate)
1,QVQLVESGGGLVQAGGSLRLSCAASGRLFTYYVMGWYRQAPGKERELVAAISYGGGSTYYADSVKGRFTISRDNAKNTVYLQMNSLKPEDTAVYYCAAEDGYRKMDYWGQGTQVTVSS,low polyreactivity
2,QVQLVESGGGLVQAGGSLRLSCAASGRLFVYNAMGWYRQAPGKERELVAAISWRGGSTYYADSVKGRFTISRDNAKNTVYLQMYSLKPEDTAVYDCAAQRTARQFDYWGQGTQVTVSS,high polyreactivity
3,QVQLVESGGGLVQAGGSLRLSCAASGRNFARYVMGWYSQAPGKERELVASISNSGGSTYYADSVKGRFTISRDNAKNTVYLQMNSLKPEDTAVYYCARRYYYYTSYRYDYWGQGTQVTVSS,high polyreactivity
4,QVQLVESGGGLVQAGGSLRLSCAASGRNFDDYAMGWYRQAPGKERELVAAISDSGGTTYYADSVKGRFTISRDNAKNTVYLQMNSLKPEDTAVYYCAKRYYGPHYWGQGTQVTVSS,low polyreactivity
5,QVQLVESGGGLVQAGGSLRLSCAASGRNFEKNAMGWSRQAPGKERELVASIDFRGGRTYADSVKGRFTISRDNAKNTVYLQMISLKPEDTAVYYCAKRQVGRKYVRYEYDSWGHGTQVTVSS,low polyreactivity
6,QVQLVESGGGLVQAGGSLRLSCAASGRNFGINAMVWFRPAPGKERELVAAISRSGGRTYYADSVKGRFTISRDNAKNTVYLQMISLKPEDTAVYYCAKVPTYWYYRYYYWGQGTEVTVSS,high polyreactivity
7,QVQLVESGGGLVQAGGSLRLSCAASGRNFGVYTMGWYRQAPGKERELVAAITSGGNTNYADSVKGRFTISRDNAKNNVYLQMNCLKPEDTAVYYCAARYVGNFYYPGHNYWGQVTQVTVSS,low polyreactivity
8,QVQLVESGGGLVQAGGSLRLSCAASGRNFGYYTMGWYRQAPGKERELVARINYIGSSTYYADSVKGRFTISRDNAKNTVFLLMNSLKPEDTAVYYCAAETYYFGYGYWGQGTQVTVSS,high polyreactivity
9,QVQLVESGGGLVQAGGSLRLSCAASGRNFKYNAMGSYRTAPGKERELVAAISSGGSTKYADSVKGRFTISRDNATKTVYLQMNSLKPEDTAVYYCNAVYTPYRRSFYYWGQGTQVTVSS,high polyreactivity
10,QVQLVESGGGLVQAGGSLRLSCAASGRNFRHYAMGWDRQAPGKERELVAAIRWSGGSTYYADSVKGRFTISRDNAKNTVYLQMNSLKPEETAVYYCATRDAVGHRPSGPYQLYDYWGQGTQVTVSS,low polyreactivity
11,QVQLVESGGGLVQAGGSLRLSCAASGRNFRKYAMGWYRQAPGKERELVAAITSSGGSTYYADSVKGRFTISRDNAKNTVYLQMNSLKPVDTAVYYCAAQKRGSPGYRRDYWGQGTQVTVSS,high polyreactivity
12,QVQLVESGGGLVQAGGSLRLSCAASGRNFRYYAMGWYRPAPGKERELVAAISGSGGSTYYADSVKGRFTISRDNAKNTVYLQMNSLKPEDTAVYYCNARYRIPSGEGDHWGQGTQVTVSS,low polyreactivity
13,QVQLVESGGGLVQAGGSLRLSCAASGRNFSYYVMGWYRPAHGKERELVAAITSGGSTNYAHSVKGRFTISRDNAKNTVYLQMNSLKPEDTAVYYCNRAYTYINRLYGYWGQGTQVTVST,high polyreactivity
14,QVQLVESGGGLVQAGGSLRLSCAASGRNFVAYTMGWYRQAPGKERELVAAISTNGGRTYYADSVKGRFTISRDNAKITVYLQMNSLKPEDTAVYYCAAYRGPRADYYWGQGTQVTVSS,high polyreactivity
15,QVQLVESGGGLVQAGGSLRLSCAASGRNFVNYAMGWYRQAPGKERELVAVISRSGGGTNYADSVKGRYTISRDNAKNTVYLQMNSLKPEDTAVYYCAASRKYGYGYWGQGTQVTVSS,high polyreactivity
16,QVQLVESGGGLVQAGGSLRLSCAASGRNFYYYAMGWYRQAPGKERELVATITGSGGNTYYADSVKGRFTISRDNAKNTVYLQMNSLKPEDTAVYFCNARLARGYWTPGKERPMEYWGQGTQVTVSS,low polyreactivity
17,QVQLVESGGGLVQAGGSLRLSCAASGRNIQGYAMGWYRQAPGKESELVAAITLSGGSTYYADSVKGRFTISRDNAKNTVYLQMNSLKPEVTAVYYCNAYYPDEPSLYDYWGQGTQVTVSS,low polyreactivity
18,QVQLVESGGGLVQAGGSLRLSCAASGRNIRRYTMGLYIQAPGKEREFVAAITWSGSSTNYADSVKGRFTISRDNAKNTVYLQMNSLKPEDTAVYYCAAENRRRRDDYWGQGTQVTVSS,high polyreactivity
19,QVQLVESGGGLVQAGGSLRLSCAASGRNISYNAMGGYRQAPGKERELVAAISWGGGSTYYADSVMGRFTISRDNAKNTVFLHMNSLKQDDTAVYYCAKGWYRIKRNDYWGQGTQVTVSS,low polyreactivity
20,QVQLVESGGGLVQAGGSLRLSCAASGRNYVPYAMGWYRQAPGKERELVAALSNSGGSTYYADSVKGRFTISRDNAKNTGYLQRNSLKPEYTAVYFCAPDGRYAYGYNHWGQGTQVTGSS,low polyreactivity
